In paper PMC2212354:

What was measured:
[1] = biological target: CXCR3, stably expressed on HEK293 cells (human) (UniProt P49682)
[2] = biological target: CXCR3, stably expressed on HEK293 cells (human) (UniProt P49682); test: radioligand binding

Chain of UniProt P49682 (P49682 whole entry): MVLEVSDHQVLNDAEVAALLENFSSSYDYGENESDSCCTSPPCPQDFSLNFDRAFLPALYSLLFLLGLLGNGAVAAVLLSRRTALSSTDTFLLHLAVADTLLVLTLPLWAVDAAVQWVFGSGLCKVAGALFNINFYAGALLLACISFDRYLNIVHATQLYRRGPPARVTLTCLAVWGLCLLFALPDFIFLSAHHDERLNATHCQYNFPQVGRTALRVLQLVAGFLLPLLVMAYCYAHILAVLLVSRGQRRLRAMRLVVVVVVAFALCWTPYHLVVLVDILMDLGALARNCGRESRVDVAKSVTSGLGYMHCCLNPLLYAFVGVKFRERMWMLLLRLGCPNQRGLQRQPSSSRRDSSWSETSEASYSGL

Row | Substance | EC50 of intracellular calcium mobilization in 300-19 CXCR3 transfectants [1] [nM] | IC50 [2] [nM] | KD, high affinity site (Scatchard) [2] [nM] | KD, low affinity site (Scatchard) [2] [nM] | intracellular calcium mobilized in 300-19 CXCR3 transfectants (maximum) [1] [nM] | radiolabeled I-TAC bound (cpm) [2] [cpm]
1 | I-TAC (interferon-inducible T cell alpha chemoattractant), chemically synthesized predicted mature polypeptide, unlabeled (from UniProt O14625 22-94) (ligand) | 1 | 1 | 0.3 | 36 |  | 
2 | IFN-γ–induced human monokine (HuMig), recombinant, unlabeled (from UniProt Q07325 23-125) (ligand) | 50 | 300 |  |  | 1000 | 
3 | 125I-iodinated I-TAC (radiolabeled synthetic mature I-TAC) (from UniProt O14625 22-94) (ligand) |  |  |  |  |  | 5980
4 | IFN-γ–inducible 10-kD protein (IP-10), recombinant, unlabeled (from UniProt P02778 22-98) (ligand) | 10 | 70 |  |  | 1000 | 
